{
  "source": "paper PMC6133022",
  "origin": "cited, not measured here",
  "target": "alpha-bungarotoxin (Bungarus multicinctus) (UniProt P60615)",
  "sequence (P60615 22-95)": "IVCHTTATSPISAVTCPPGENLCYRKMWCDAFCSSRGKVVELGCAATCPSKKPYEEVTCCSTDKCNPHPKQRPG",
  "data": [
    {"substance": "alpha7-nAChR (from UniProt P36544)", "values": [
      {"measurement": "Kd", "result": 0.094, "unit": "nM"}
    ]}
  ]
}
